This note sets out measurements from patent US20230189844.

The target of series [1] is T1, Soy Bowman-Birk Inhibitor, P01055.
T1 chain: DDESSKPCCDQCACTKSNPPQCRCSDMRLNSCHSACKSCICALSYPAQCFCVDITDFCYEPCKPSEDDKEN

Series [2] concerns the target T2, Soy Kunitz Inhibitor (Trypsin Inhibitor from soybean), P01070.
T2 chain: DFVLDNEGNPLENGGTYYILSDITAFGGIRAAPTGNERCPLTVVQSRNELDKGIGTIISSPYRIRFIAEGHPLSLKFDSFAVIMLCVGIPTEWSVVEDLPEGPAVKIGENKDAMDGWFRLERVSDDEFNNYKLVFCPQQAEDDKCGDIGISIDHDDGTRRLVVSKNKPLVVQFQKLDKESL

Series [3] addresses Soybean agglutinin (SBA), P05046.

Sequence of Soybean agglutinin (SBA), P05046 (P05046 33-285): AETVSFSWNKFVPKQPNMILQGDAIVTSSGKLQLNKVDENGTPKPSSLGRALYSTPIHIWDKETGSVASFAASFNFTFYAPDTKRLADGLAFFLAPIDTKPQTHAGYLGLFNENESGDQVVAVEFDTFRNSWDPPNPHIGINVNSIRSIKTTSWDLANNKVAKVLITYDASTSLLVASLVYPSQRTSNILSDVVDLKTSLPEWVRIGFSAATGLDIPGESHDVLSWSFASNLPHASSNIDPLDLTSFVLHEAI

B1: Protease derived from Nocardiopsis sp. NRRL 18262 (an acid-stable protease) (protein)
chain: ADIIGGLAYTMGGRCSVGFAATNAAGQPGFVTAGHCGRVGTQVTIGNGRGVFEQSVFPGNDAAFVRGTSNFTLTNLVSRYNTGGYATVAGHNQAPIGSSVCRSGSTTGWHCGTIQARGQSVSYPEGTVTNMTRTTVCAEPGDSGGSYISGTQAQGVTSGGSGNCRTGGTTFYQEVTPMVNSWGVRLRT
Turning to B1, the results for the % of anti-nutritional factor degraded (SDS-PAGE band disappearance, 2 hours, 37° C., pH 6.5) in series [1], in series [2] and in series [3] were 25%, 100% and 75%, respectively.
